In patent US12448436B2, “Antibody specifically binding to GRP94 or antigen-binding fragment thereof, and uses thereof” (KOOKMIN UNIVERSITY INDUSTRY ACADEMY COOPERATION FOUNDATION, priority 2020, dated 2025):
Changes are numbered by the printed parent chain. Entries after “also recorded” stand apart in the source; their conditions may differ.

B1: B5: anti-GRP94 human IgG antibody; CDRs SEQ ID NOS: 1 to 6, VH SEQ ID NO: 7, VL SEQ ID NO: 8 (antibody, V domains shown)
VH: EVQLLESGGGLVQPGGSLRLSCAASGFTFSNYYMSWVRQAPGKGLEWVSGIYPNSGSTYYADSVKGRFTISRDNSKNTLYLQMNSLRAEDTAVYYCARDPLHPARFPFDYWGQGTLVTVSS
VL: QSVLTQPPSASGTPGQRVTISCTGSSSNIGNNAVSWYQQLPGTAPKLLIYADSHRPSGVPDRFSGSKSGTSASLAISGLRSEDEADYYCGAWDASLNAYVFGGGTKLTVL
modifications: Amino acid sequence of heavy chain variable of GRP94 B5; Amino acid sequence of light chain variable of GRP94 B5
B2: E5: anti-GRP94 human IgG antibody; CDRs SEQ ID NOS: 9 to 14, VH SEQ ID NO: 15, VL SEQ ID NO: 16 (antibody, V domains shown)
VH: EVQLLESGGGLVQPGGSLRLSCAASGFTFSNYAMSWVRQAPGKGLEWVSGISSSSGSTYYADSVKGRFTTSRDNSKNTLYLQMNSLRAEDTAVYYCARDRHPFSPNWFDYWGQGTLVTVSS
VL: B1 VL with T23S, S26P, N31S, A33T, S35T, G90A, A91S, A94D, A98G
modifications: Amino acid sequence of heavy chain variable of GRP94 E5; Amino acid sequence of light chain variable of GRP94 E5
B3: 3G7: anti-GRP94 human IgG antibody; CDRs SEQ ID NOS: 25 to 30, VH SEQ ID NO: 31, VL SEQ ID NO: 32 (antibody, V domains shown)
VH: EVQLLESGGGLVQPGGSLRLSCAASGFTFSNYSMSWVRQAPGKGLEWVSGIYYGSGNKYYADSVKGRFTISRDNSKNTLYLQMNSLRAEDTAVYYCAKNLASFDYWGQGTLVTVSS
VL: B1 VL with T23S, N31S, A33S, S35N, A51S, D52N, A91T, A94S, N97S, A98G
modifications: Amino acid sequence of heavy chain variable of GRP94 3G7; Amino acid sequence of light chain variable of GRP94 3G7

Columns and labels:
[1] = In vivo hepatotoxicity and nephrotoxicity in colorectal xenograft model; set-up: species or system Balb/c nude mice; settings: mouse, 10 mg/kg
Protocol: To assay the four antibodies of the present disclosure for in vivo hepatotoxicity and nephrotoxicity, the same xenograft model as in Example 11 weighed every week. After six weeks of the experiment, GOT (glutamic oxaloacetic transaminase), GPT (glutamate pyruvate transaminase), and TBIL (total bilirubin) were measured for hepatotoxicity assay while BUN (blood urea nitrogen) and CRE (creatinine) were measured for nephrotoxicity assay. The results are depicted in FIGS. 27a and 27b.

[2] = target: recombinant rat GRP94 (Rattus norvegicus, UniProt Q66HD0); assay: ELISA binding to recombinant rat GRP94; settings: high specificity stated for human and rat antigens
Protocol: (§1) Each well of 96-well plates was coated with 0.1 μg of recombinant human GRP94 (rhGRP94), blocked with 3% (w/v) bovine serum albumin (BSA) in phosphate buffered saline (PBS) for 2 hours at 37° C., and incubated with 100 μL of GRP94 targeting IgG (20 μg/mL) for 2 hours at 37° C. The plates were washed thrice with 0.05% PBS-T, and 100 μL of a 500:1 dilution of the secondary antibody anti-human Fc Ab (Sigma-Aldrich) was added to each well. Incubation at 37° C. for 1 hour was followed by three rounds of washing with 0.05% PBS-T. Then, 100 μL of 3,3′,5,5′-tetramethylbenzidine (1-step ultra TMB) substrate solution was added to each well. Finally, optical densities were measured at 450 nm using a microplate reader (Synergy H1, BioTek).
(§2) After 96-well plates were coated with BSA, recombinant human GRP94, recombinant rat GRP94, and recombinant monkey GRP94, their binding affinity for each antibody (B5, E5, 2H5, or 3G7) was measured by ELISA.

[3] = target: T1, recombinant human GRP94 (Homo sapiens, UniProt P14625); assay: ELISA binding to recombinant human GRP94; settings: high specificity stated for human and rat antigens
T1 construct: made in house; host or cells: Expi293 cells (pcDNA 3.4)
Protocol: as §1
The four GRP94 IgGs (B5, E5, 2H5, and 3G7) of the present disclosure were measured for equilibrium dissociation constant (KD). In this regard, each well of 96-well plates was coated with 100 ng of rhGRP94 and blocked with 3% (w/v) bovine serum albumin (BSA) in PBS at 37° C. for 2 hours. Next, the plates were incubated with a concentration gradient of 0 nM to 500 nM of each clone for the GRP94 IgGs at 37° C. for 2 hours. The use of a secondary antibody and the measurement of optical density were conducted as described for the ELISA.
as §2

[4] = test system: HT29 cells; assay: In vitro CRC proliferation assay, HT29; type: cell-based, human; settings: 20 μg/mL; for cell index at the end point: 72 hours, MOCK 2.94±0.04; for cell growth inhibitory ability: end point, relative to the control PBS
Protocol: (§3) The four anti-GRP94 human IgG antibodies B5, E5, 2H5, and 3G7 of the present disclosure were examined in vitro for effect on CRC cell proliferation. […] The culture medium was removed by suction and the cells were washed with 10 mL of phosphate buffered saline (hereinafter PBS). After removal of PBS by suction, the cells were treated 2 mL of TrypLE Express Enzyme at 37° C. for 3 minutes in a 5% CO2 incubator. Thereafter, the cells were added with 8 mL of the culture medium, transferred to 15-mL tube, and centrifuged at 500×g for 5 minutes. After removal of the supernatant, the cells were suspended in the culture medium. From a small portion of the cell suspension, the cells were counted using the Countess II Automated Cell Counter. […] The 96-well plates were mounted on the Incucyte Zoom system. With the microscope magnification set at 4×, images were collected at intervals of 2 hours for 72 hours. From the collected images, cell growth was monitored using the IncuCyte FLR live content imaging system (Essen Bioscience, Ann Arbor, MI, USA).

[5] = target: recombinant monkey GRP94 (Macaca fascicularis, UniProt Q4R520); assay: ELISA binding to recombinant monkey GRP94
Protocol: as §1, §2

[6] = Protein aggregation index (UV absorbance 280/340 nm); type: physicochemical; settings: antibody in PBS; 100×(Abs340/[Abs280−Abs340]); control HCl-aggregated GRP94 antigen
Protocol: To evaluate the production the antibodies (B5, E5, 2H5, and 3G7) of the present disclosure and the antibody aggregation after purification, each of the antibodies was added to PBS and absorbance was read at 280 nm and 340 nm using NanoDrop 2000 (Thermo Fisher Scientific). The protein aggregation index was calculated from UV absorbance according to the following equation. As a control, the GRP94 antigen that was induced by treatment with HCl to aggregate was used. Protein Aggregation Index=100×(Abs340/[Abs280−Abs340]) Equation 1

[7] = test system: HCT116 subcutaneous xenograft; assay: Tumor growth inhibition by sole administration, colorectal xenograft model; type: in vivo, Balb/c nude mice; settings: 10 mg/kg intravenous twice per week for six weeks; for tumor growth inhibition compared to PBS: n=9
Text: For use in assaying in-vivo efficacy of the four antibodies of the present disclosure, a subcutaneous xenograft mouse model was established by injecting the metastatic colorectal cancer cell line HCT116 (5×10^6 cells) into 6-week-old Balb/c nude mice.

[8] = test system: LoVo cells; assay: In vitro CRC proliferation assay, LoVo; type: cell-based, human; settings: 20 μg/mL; for cell index at the end point: 72 hours, MOCK 3.76±0.19; for cell growth inhibitory ability: end point, relative to the control PBS
Protocol: as §3

[9] = test system: HCT116 cells; assay: In vitro CRC proliferation assay, HCT116; type: cell-based, human; settings: 20 μg/mL, end point, relative to the control PBS
Protocol: The four anti-GRP94 human IgG antibodies B5, E5, 2H5, and 3G7 of the present disclosure were examined in vitro for effect on CRC cell proliferation. For use in the efficacy assay, the four cetuximab-resistant colorectal cancer cell lines HCT116, HT29, LoVo, and HCT-8 were each grown in a culture medium (HCT116, HCT8, HT29, and LoVo: RPMI1640+10% FBS+1% Penicillin-Streptomycin) at 37° C. in T-75 flask in a 5% CO2 incubator until reaching about 80-90% confluency. The culture medium was removed by suction and the cells were washed with 10 mL of phosphate buffered saline (hereinafter PBS). After removal of PBS by suction, the cells were treated 2 mL of TrypLE Express Enzyme at 37° C. for 3 minutes in a 5% CO2 incubator. Thereafter, the cells were added with 8 mL of the culture medium, transferred to 15-mL tube, and centrifuged at 500×g for 5 minutes. After removal of the supernatant, the cells were suspended in the culture medium. From a small portion of the cell suspension, the cells were counted using the Countess II Automated Cell Counter. […] The 96-well plates were mounted on the Incucyte Zoom system. With the microscope magnification set at 4×, images were collected at intervals of 2 hours for 72 hours. From the collected images, cell growth was monitored using the IncuCyte FLR live content imaging system (Essen Bioscience, Ann Arbor, MI, USA).

[10] = test system: HCT8 cells; assay: In vitro CRC proliferation assay, HCT8; type: cell-based, human; settings: 20 μg/mL; for cell index at the end point: 72 hours, MOCK 4.8±0.25; for cell growth inhibitory ability: end point, relative to the control PBS
Protocol: as §3

T1 sequence (P14625 22-803): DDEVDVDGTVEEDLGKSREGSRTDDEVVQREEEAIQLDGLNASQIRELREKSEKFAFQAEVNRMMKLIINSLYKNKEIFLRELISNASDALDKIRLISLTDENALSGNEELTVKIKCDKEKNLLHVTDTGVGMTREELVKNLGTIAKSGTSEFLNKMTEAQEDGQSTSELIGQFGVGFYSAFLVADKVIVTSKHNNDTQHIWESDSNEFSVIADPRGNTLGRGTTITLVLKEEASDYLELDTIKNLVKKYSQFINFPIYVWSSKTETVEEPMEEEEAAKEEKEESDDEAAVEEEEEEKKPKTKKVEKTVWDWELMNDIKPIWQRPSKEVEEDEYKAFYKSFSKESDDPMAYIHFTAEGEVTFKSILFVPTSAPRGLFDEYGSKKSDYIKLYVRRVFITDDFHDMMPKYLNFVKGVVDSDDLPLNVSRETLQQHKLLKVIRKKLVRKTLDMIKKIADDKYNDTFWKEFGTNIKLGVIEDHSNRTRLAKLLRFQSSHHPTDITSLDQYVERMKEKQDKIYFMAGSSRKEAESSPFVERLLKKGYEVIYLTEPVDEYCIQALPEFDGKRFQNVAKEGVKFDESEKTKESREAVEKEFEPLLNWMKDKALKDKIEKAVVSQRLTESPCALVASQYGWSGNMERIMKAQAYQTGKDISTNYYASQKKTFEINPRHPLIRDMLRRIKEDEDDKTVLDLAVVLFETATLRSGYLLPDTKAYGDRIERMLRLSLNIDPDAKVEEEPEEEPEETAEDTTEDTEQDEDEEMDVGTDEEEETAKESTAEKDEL
recombinant rat GRP94, sequence (Q66HD0 22-804): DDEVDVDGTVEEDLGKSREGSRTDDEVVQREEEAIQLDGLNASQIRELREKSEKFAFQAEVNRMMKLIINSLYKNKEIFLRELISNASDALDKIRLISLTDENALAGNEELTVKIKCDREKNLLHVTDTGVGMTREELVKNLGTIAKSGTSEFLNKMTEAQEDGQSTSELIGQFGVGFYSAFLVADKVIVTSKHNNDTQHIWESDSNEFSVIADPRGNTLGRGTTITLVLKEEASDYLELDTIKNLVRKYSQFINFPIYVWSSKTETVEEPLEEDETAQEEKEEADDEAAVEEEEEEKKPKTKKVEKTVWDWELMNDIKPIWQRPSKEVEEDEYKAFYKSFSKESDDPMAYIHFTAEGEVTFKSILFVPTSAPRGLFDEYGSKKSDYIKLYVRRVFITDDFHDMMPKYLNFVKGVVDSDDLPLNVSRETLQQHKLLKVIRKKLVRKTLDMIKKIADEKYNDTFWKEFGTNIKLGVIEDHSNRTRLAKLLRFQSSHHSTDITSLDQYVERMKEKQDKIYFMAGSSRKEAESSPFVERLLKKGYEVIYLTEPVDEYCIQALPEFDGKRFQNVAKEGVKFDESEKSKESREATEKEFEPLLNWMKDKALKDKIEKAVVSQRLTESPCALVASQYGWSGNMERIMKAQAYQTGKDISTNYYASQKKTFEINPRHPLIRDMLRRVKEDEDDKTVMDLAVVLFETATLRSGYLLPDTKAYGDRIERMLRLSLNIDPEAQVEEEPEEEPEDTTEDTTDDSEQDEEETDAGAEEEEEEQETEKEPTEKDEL
recombinant monkey GRP94, sequence (Q4R520 22-804): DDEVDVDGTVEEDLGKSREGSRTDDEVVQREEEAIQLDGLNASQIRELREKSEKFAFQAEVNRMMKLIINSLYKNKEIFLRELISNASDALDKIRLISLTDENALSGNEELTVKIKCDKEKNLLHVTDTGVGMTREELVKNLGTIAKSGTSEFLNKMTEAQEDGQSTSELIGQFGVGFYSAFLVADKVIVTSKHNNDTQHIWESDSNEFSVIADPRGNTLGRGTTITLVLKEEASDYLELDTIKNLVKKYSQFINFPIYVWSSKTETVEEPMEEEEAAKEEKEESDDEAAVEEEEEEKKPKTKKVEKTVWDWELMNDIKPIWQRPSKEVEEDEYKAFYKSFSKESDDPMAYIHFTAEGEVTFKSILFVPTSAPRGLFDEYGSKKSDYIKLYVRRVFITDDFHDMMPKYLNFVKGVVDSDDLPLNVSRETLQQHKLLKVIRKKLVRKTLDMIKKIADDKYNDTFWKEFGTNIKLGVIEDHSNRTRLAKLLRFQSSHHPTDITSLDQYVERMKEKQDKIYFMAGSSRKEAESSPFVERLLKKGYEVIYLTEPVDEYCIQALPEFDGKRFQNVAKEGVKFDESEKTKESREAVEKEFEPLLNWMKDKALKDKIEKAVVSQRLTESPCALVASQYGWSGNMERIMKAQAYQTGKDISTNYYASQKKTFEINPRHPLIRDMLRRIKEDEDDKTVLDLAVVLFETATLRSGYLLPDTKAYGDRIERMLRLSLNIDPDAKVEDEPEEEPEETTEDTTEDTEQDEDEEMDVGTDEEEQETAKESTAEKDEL

Row | Molecule | changes in body weight [1] | changes in serum levels of liver and kidney functional indices (GOT, GPT, TBIL, BUN, and CREA) [1] | binding to recombinant rat GRP94 [2] | binding to recombinant human GRP94 [3] | cell index at the end point [4] | cell growth inhibitory ability [4] | binding to recombinant monkey GRP94 [5] | protein aggregation index [6] | tumor growth inhibition compared to PBS [7] [%] | cell index at the end point [8] | cell growth inhibitory ability [8] | cell growth inhibitory ability [9] | cell index at the end point [10] | cell growth inhibitory ability [10] | inhibitory activity against tumor growth compared to the controls ([7]; controls PBS and hIgG)
1 | B1 | no significant changes | no significant changes | bind | bind | 2.32±0.02 | statistically significant; also recorded: excellent inhibitory activity | bind | low | 30 | 2.69±0.04 | statistically significant; also recorded: excellent inhibitory activity | statistically significant; also recorded: excellent inhibitory activity | 3.15±0.21 | excellent inhibitory activity | –
2 | B2 | no significant changes | no significant changes | bind | bind | 2.32±0.08 | statistically significant; also recorded: excellent inhibitory activity | bind | low | – | 2.73±0.22 | statistically significant; also recorded: excellent inhibitory activity | statistically significant; also recorded: excellent inhibitory activity | 3.33±0.31 | excellent inhibitory activity | did not exhibit inhibitory activity
3 | B3 | no significant changes | no significant changes | bind | bind | 2.17±0.06 | statistically significant; also recorded: excellent inhibitory activity | bind | low | 33 | 2.87±0.08 | statistically significant; also recorded: excellent inhibitory activity | statistically significant; also recorded: excellent inhibitory activity | 3.40±0.16 | excellent inhibitory activity | –
